“And” between values parts separate entries of the source, which are not always exact repeats. Identical values can stand only once.

As usually defined, the Kd is the constant that tells how readily two partners part at equilibrium.

The target in assay [1] is T1, human FcγRIIa 131R (human, UniProt P12318 36-218, limits assumed).
T1 sequence (looked up): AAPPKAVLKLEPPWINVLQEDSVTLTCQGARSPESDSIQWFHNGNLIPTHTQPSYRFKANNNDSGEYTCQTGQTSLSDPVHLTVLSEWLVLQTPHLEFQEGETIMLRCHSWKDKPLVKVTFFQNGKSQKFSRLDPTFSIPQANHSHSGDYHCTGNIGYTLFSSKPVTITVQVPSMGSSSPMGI
In words: surface plasmon resonance (refers to Table 9).

The target in assay [2] is T2, human TLR4 (human, UniProt O00206 24-839).
T2 construct: also called hTLR4; Toll-like Receptor 4
T2 sequence (O00206 24-839 limits assumed): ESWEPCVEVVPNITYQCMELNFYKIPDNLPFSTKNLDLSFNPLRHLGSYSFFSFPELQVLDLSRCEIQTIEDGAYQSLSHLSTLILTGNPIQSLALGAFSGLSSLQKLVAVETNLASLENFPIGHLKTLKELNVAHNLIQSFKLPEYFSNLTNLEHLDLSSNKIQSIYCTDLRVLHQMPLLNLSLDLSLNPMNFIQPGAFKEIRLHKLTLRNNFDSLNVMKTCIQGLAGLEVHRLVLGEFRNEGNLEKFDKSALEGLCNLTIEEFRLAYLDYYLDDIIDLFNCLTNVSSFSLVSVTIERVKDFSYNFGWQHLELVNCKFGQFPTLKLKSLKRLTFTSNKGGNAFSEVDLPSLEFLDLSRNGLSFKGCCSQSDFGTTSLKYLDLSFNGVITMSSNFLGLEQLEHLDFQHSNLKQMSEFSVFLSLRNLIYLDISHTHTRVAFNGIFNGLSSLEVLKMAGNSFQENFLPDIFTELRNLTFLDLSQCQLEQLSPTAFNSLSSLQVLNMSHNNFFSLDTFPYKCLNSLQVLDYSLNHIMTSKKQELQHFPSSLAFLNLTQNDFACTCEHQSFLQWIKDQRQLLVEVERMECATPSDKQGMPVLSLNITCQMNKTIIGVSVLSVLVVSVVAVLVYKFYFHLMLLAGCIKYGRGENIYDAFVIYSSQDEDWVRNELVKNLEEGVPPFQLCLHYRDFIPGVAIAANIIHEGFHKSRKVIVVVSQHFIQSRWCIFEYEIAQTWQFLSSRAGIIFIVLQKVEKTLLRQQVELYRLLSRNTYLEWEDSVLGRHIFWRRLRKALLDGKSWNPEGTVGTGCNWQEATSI
Description: KinExA combined with ELISA, average Kd. For orientation: In KinExA the mixture passes briefly over coated beads that capture the unbound partner.

In assay [3] the target is T2, human TLR4. Description: cell-based or functional assay.
In assay [4] the target is T2, human TLR4. Description: cell-based or functional assay. The source holds these as a separate data set.
In assay [5] the target is T3, human FcγRIIb (human, UniProt P31994 43-217, limits assumed).
T3 construct: also called CD32b
T3 sequence (looked up): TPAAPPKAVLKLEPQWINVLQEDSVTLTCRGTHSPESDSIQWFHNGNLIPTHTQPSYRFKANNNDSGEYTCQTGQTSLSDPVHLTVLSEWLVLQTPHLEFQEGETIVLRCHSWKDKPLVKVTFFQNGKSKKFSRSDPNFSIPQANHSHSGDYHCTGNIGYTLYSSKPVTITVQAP
Description: surface plasmon resonance.

Assay [6] addresses T1, human FcγRIIa 131R. In words: surface plasmon resonance. (In general: SPR reads the build-up and loss of mass on a sensor chip optically.)
In assay [7] the target is T4, human FcγRIIa 131H (human, UniProt P12318 36-218, limits assumed).
T4 sequence (looked up): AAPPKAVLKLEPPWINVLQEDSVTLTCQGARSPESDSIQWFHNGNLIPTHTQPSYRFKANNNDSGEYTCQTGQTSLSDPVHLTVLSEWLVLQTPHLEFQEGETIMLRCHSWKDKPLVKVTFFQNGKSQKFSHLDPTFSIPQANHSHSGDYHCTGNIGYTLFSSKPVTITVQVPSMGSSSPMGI
Description: surface plasmon resonance.

Assay [8] concerns the target T5, human FcγRI (human, UniProt P12314 16-288, limits assumed).
T5 construct: also called CD64; FcyRI
In words: surface plasmon resonance.

For assay [9], the target named is T2, human TLR4. Description: KinExA.
The target in assay [10] is T6, mouse FcγRIV (mouse, UniProt A0A0B4J1G0 21-203).
T6 construct: also called mFcγRIV
T6 sequence: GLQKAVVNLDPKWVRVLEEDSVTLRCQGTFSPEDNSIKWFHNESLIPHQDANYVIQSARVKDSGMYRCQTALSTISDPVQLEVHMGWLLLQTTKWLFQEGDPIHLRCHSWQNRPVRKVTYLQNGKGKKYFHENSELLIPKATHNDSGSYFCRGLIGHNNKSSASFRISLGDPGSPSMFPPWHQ
In words: method not stated.

The target of assay [11] is T7, mouse FcγRI (mouse, UniProt P26151 25-297, limits assumed).
T7 construct: also called mFcγRI; mouse FcyRI
T7 sequence (looked up): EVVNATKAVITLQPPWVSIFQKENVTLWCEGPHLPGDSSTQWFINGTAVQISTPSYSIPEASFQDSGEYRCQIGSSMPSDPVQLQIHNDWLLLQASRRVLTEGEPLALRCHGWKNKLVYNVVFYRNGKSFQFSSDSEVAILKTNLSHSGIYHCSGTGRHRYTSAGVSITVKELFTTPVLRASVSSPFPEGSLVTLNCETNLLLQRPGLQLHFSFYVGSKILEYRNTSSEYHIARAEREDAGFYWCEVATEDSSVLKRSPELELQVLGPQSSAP
Description: method not stated.

Assay [12] addresses T8, mouse FcRn (mouse, UniProt Q61559 22-297; P01887 21-119, limits assumed).
T8 construct: also called mFcRn
T8 sequence (looked up) 1: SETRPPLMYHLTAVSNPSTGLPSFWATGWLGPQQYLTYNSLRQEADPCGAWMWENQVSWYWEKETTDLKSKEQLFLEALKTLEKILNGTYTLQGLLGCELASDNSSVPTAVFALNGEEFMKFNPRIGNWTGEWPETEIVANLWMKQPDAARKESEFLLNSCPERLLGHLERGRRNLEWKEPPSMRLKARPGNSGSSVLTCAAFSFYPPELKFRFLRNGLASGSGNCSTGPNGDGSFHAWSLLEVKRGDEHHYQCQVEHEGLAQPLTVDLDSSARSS
T8 sequence (looked up) 2: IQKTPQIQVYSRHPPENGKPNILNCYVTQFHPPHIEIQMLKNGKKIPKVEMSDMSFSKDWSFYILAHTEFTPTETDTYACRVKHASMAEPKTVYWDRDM
Description: method not stated.

Assay [13] concerns the target T9, mouse FcγRII (mouse, UniProt P08101 30-210, limits assumed).
T9 construct: also called mFcγRII; mouse FcyRII
T9 sequence (looked up): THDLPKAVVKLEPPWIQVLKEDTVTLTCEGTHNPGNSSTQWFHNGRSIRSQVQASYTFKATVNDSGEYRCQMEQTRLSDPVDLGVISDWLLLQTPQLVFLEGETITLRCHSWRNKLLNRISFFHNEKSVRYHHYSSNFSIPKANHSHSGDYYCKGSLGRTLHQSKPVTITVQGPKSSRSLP
Description: method not stated.

For assay [14], the target named is T10, mouse FcγRIII (mouse, UniProt P08508 31-215, limits assumed).
T10 construct: also called mFcγRIII
T10 sequence (looked up): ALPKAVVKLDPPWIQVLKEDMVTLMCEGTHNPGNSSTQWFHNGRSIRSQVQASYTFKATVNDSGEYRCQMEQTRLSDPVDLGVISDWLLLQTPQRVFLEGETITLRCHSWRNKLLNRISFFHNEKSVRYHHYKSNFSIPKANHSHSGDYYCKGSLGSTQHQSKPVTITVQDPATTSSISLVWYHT
Description: method not stated.

Assay [15] has as its target T11, mouse TLR4 (mouse, UniProt Q9QUK6 26-629, limits assumed).
T11 sequence (looked up): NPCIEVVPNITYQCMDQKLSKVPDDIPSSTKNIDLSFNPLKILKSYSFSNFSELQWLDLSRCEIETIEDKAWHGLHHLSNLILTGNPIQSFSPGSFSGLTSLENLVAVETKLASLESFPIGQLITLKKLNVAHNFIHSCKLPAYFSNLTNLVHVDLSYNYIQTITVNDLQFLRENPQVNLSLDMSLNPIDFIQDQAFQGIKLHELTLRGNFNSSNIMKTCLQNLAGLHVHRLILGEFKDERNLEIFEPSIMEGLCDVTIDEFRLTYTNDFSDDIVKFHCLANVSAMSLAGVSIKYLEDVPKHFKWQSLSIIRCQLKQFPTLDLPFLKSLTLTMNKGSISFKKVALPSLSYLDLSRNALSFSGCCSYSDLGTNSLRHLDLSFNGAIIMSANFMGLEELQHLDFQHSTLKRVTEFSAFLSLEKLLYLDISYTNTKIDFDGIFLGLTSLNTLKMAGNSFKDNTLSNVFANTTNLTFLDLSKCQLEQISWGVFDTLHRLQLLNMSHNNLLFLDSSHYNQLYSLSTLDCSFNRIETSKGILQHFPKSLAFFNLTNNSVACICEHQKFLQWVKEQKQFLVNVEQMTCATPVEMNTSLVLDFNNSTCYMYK
In words: method not stated, average Kd.

Assay [16] addresses T11, mouse TLR4. Description: cell-based or functional assay.

T5 sequence (P12314 16-288 limits assumed): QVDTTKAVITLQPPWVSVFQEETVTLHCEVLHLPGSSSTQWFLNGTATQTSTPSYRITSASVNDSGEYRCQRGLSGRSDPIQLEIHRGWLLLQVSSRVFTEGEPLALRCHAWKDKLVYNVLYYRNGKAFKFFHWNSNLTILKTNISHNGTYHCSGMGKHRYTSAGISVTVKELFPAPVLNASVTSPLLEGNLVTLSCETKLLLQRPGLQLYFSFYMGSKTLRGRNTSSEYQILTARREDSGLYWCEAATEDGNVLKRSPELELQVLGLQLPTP

B1: NI-0101 (antibody, human IgG1, kappa)
heavy: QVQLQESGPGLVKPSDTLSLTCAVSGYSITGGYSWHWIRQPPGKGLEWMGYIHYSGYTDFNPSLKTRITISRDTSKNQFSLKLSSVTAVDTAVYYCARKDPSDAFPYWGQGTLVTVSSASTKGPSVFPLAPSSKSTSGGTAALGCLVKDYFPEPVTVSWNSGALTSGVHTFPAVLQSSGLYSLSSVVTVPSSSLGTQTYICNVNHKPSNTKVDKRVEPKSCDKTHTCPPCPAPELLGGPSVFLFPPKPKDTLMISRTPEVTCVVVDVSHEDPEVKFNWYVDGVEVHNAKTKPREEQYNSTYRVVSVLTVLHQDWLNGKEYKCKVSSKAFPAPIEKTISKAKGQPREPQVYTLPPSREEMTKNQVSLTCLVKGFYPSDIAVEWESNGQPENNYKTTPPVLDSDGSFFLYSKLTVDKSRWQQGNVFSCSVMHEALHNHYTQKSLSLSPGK
light: EIVLTQSPDFQSVTPKEKVTITCRASQSISDHLHWYQQKPDQSPKLLIKYASHAISGVPSRFSGSGSGTDFTLTINSLEAEDAATYYCQQGHSFPLTFGGGTKVEIKRTVAAPSVFIFPPSDEQLKSGTASVVCLLNNFYPREAKVQWKVDNALQSGNSQESVTEQDSKDSTYSLSSTLTLSKADYEKHKVYACEVTHQGLSSPVTKSFNRGEC
Consider B1, for which the “fold higher affinity than to the 131H variant” value in [1] came out at 2 fold. Moreover, the Kd in assay [2] turned out to be 0.139 nM. Besides, in assay [3], the “IC50, LPS mediated cytokine production in human primary macrophages” value came out at 0.0104 nM; the “IC50, LPS-induced IL-6 release in THP1 cells (FcγRIIa 131HH)” value is 0.0027 nM; the “IC50, LPS-induced IL-6 release in U937 cells (FcγRIIa 131RR)” value stood at 0.002 nM; the “IC50, LPS-induced IL-6 release in human whole blood, FcγRIIa 131HH donors” value worked out at 2.19 nM. Further, in [3], the “IC50, LPS-induced IL-6 release in human whole blood, FcγRIIa 131RH donors” value stood at 0.223 nM; the “IC50, LPS-induced IL-6 release in human whole blood, FcγRIIa 131RR donors” value was determined as 0.128 nM; the “IC50, Tenascin-C mediated cytokine production in human primary macrophages” value is 0.022 nM; the “IC50, nickel mediated cytokine production in human primary macrophages” value is 0.015 nM. In addition, the “IC50, Blockade of LPS induced TLR4 signalling, human whole blood (FcγRIIaHH)” value in assay [4] is 2.19 nM and 324 ng/mL. This molecule gave a Kd in assay [5] of 870 nM. For the same molecule, the Kd in assay [6] stood at 151 nM. This molecule had a Kd in assay [7] of 311 nM. The molecule also registered a Kd in assay [8] of 47.3 nM.

B2: Hu 15C1 (antibody, V domains shown)
VH: QVQLQESGPGLVKPSDTLSLTCAVSGYSITGGYSWHWIRQPPGKGLEWMGYIHYSGYTDFNPSLKTRITISRDTSKNQFSLKLSSVTAVDTAVYYCARKDPSDAFPYWGQGTLVTVSS
VL: EIVLTQSPDFQSVTPKEKVTITCRASQSISDHLHWYQQKPDQSPKLLIKYASHAISGVPSRFSGSGSGTDFTLTINSLEAEDAATYYCQQGHSFPLTFGGGTKVEIK
notes: the rest is a non-mutated human IgG1 Fc
For B2, in [9], the Kd amounted to 0.139 nM.

B3: 5E3 (antibody, mouse IgG2a, kappa)
heavy: QIQLVQSGPELKKPGESVKISCKASGYTFTDYVMYWVKQAPGKGLKWMGWINTNTGKPTYADDFKGRFVFSLEASASTANLQISNLKNEDTATYFCTRGNYPGLRVMDAWGQGASVTVSSAKTTAPSVYPLAPVCGDTTGSSVTLGCLVKGYFPEPVTLTWNSGSLSSGVHTFPAVLQSDLYTLSSSVTVTSSTWPSQSITCNVAHPASSTKVDKKIEPRGPTIKPCPPCKCPAPNLLGGPSVFIFPPKIKDVLMISLSPIVTCVVVDVSEDDPDVQISWFVNNVEVHTAQTQTHREDYNSTLRVVSALPIQHQDWMSGKEFKCKVNNKDLPAPIERTISKPKGSVRAPQVYVLPPPEEEMTKKQVTLTCMVTDFMPEDIYVEWTNNGKTELNYKNTEPVLDSDGSYFMYSKLRVEKKNWVERNSYSCSVVHEGLHNHHTTKSFSRTPGK
light: DIQMTQSPSSMSVSLGDTVTITCRASQDVGIYVNWFQQKPGKSPRRLIFRATNLADGVPSRFSGSRSGSDYSLTISSLGSEDVAGYHCLQYDEYPLTFGSGTKLEIKRADAAPTVSIFPPSSEQLTSGGASVVCFLNNFYPKDINVKWKIDGSERQNGVLNSWTDQDSKDSTYSMSSTLTLTKDEYERHNSYTCEATHKTSTSPIVKSFNRNEC
notes: Chimeric anti-mouse TLR4 mAb: rat variable regions grafted onto a mouse IgG2a kappa Fc
Turning to B3, the Kd amounted to 113 nM in assay [10]; 50.8 nM in [11]; 2.93 nM in assay [12]; 3260 nM in [13]; 505 nM in [14]; 0.027 nM in [15]. Further, the “IC50, Blockade of LPS induced TLR4 signalling, mouse whole blood” value in assay [16] is 1.16 nM and 173 ng/mL.

Values taken from patent US20230192881A1 (EDESA BIOTECH RESEARCH, published 2023).
